Results taken from patent KR20200059381A.

Assays:
[1] = biological target: 구제역 바이러스 혈청형 O 배양액(cal1~cal4) (Foot-and-mouth disease virus serotype O); test: sandwich ELISA, cal1, 1E58 coat 1 ug/ml, 1E58-HRP 0.2 ug/ml, 450 nm
[2] = biological target: 구제역 바이러스 혈청형 O 배양액(cal1~cal4) (Foot-and-mouth disease virus serotype O); test: sandwich ELISA, cal1, 1E58 coat 1 ug/ml, 1E58-HRP 0.6 ug/ml, 450 nm
[3] = biological target: 구제역 바이러스 혈청형 O 배양액(cal1~cal4) (Foot-and-mouth disease virus serotype O); test: sandwich ELISA, cal1, 1E58 coat 2 ug/ml, 1E58-HRP 0.4 ug/ml, 450 nm
[4] = biological target: 구제역 바이러스 혈청형 O 배양액(cal1~cal4) (Foot-and-mouth disease virus serotype O); test: sandwich ELISA, cal1, 1E58 coat 4 ug/ml, 1E58-HRP 0.4 ug/ml, 450 nm
[5] = biological target: 구제역 바이러스 혈청형 O 배양액(cal1~cal4) (Foot-and-mouth disease virus serotype O); test: sandwich ELISA, cal1, 1E58 coat 4 ug/ml, 1E58-HRP 0.8 ug/ml, 450 nm
[6] = biological target: 구제역 바이러스 혈청형 O 배양액(cal1~cal4) (Foot-and-mouth disease virus serotype O); test: sandwich ELISA, cal1, 1E58 coat 8 ug/ml, 1E58-HRP 0.8 ug/ml, 450 nm
[7] = biological target: 구제역 바이러스 혈청형 O 배양액(cal1~cal4) (Foot-and-mouth disease virus serotype O); test: sandwich ELISA, cal2, 1E58 coat 1 ug/ml, 1E58-HRP 0.4 ug/ml, 450 nm
[8] = biological target: 구제역 바이러스 혈청형 O 배양액(cal1~cal4) (Foot-and-mouth disease virus serotype O); test: sandwich ELISA, cal2, 1E58 coat 1 ug/ml, 1E58-HRP 0.6 ug/ml, 450 nm
[9] = biological target: 구제역 바이러스 혈청형 O 배양액(cal1~cal4) (Foot-and-mouth disease virus serotype O); test: sandwich ELISA, cal2, 1E58 coat 2 ug/ml, 1E58-HRP 0.8 ug/ml, 450 nm
[10] = biological target: 구제역 바이러스 혈청형 O 배양액(cal1~cal4) (Foot-and-mouth disease virus serotype O); test: sandwich ELISA, cal2, 1E58 coat 4 ug/ml, 1E58-HRP 0.2 ug/ml, 450 nm
[11] = biological target: 구제역 바이러스 혈청형 O 배양액(cal1~cal4) (Foot-and-mouth disease virus serotype O); test: sandwich ELISA, cal2, 1E58 coat 4 ug/ml, 1E58-HRP 0.4 ug/ml, 450 nm
[12] = biological target: 구제역 바이러스 혈청형 O 배양액(cal1~cal4) (Foot-and-mouth disease virus serotype O); test: sandwich ELISA, cal2, 1E58 coat 4 ug/ml, 1E58-HRP 0.6 ug/ml, 450 nm
[13] = biological target: 구제역 바이러스 혈청형 O 배양액(cal1~cal4) (Foot-and-mouth disease virus serotype O); test: sandwich ELISA, cal2, 1E58 coat 8 ug/ml, 1E58-HRP 0.2 ug/ml, 450 nm
[14] = biological target: 구제역 바이러스 혈청형 O 배양액(cal1~cal4) (Foot-and-mouth disease virus serotype O); test: sandwich ELISA, cal2, 1E58 coat 8 ug/ml, 1E58-HRP 0.4 ug/ml, 450 nm
[15] = biological target: 구제역 바이러스 혈청형 O 배양액(cal1~cal4) (Foot-and-mouth disease virus serotype O); test: sandwich ELISA, cal2, 1E58 coat 8 ug/ml, 1E58-HRP 0.8 ug/ml, 450 nm
[16] = biological target: 구제역 바이러스 혈청형 O 배양액(cal1~cal4) (Foot-and-mouth disease virus serotype O); test: sandwich ELISA, cal3, 1E58 coat 1 ug/ml, 1E58-HRP 0.2 ug/ml, 450 nm
[17] = biological target: 구제역 바이러스 혈청형 O 배양액(cal1~cal4) (Foot-and-mouth disease virus serotype O); test: sandwich ELISA, cal3, 1E58 coat 1 ug/ml, 1E58-HRP 0.4 ug/ml, 450 nm
[18] = biological target: 구제역 바이러스 혈청형 O 배양액(cal1~cal4) (Foot-and-mouth disease virus serotype O); test: sandwich ELISA, cal3, 1E58 coat 1 ug/ml, 1E58-HRP 0.6 ug/ml, 450 nm
[19] = biological target: 구제역 바이러스 혈청형 O 배양액(cal1~cal4) (Foot-and-mouth disease virus serotype O); test: sandwich ELISA, cal3, 1E58 coat 1 ug/ml, 1E58-HRP 0.8 ug/ml, 450 nm
[20] = biological target: 구제역 바이러스 혈청형 O 배양액(cal1~cal4) (Foot-and-mouth disease virus serotype O); test: sandwich ELISA, cal3, 1E58 coat 2 ug/ml, 1E58-HRP 0.4 ug/ml, 450 nm
[21] = biological target: 구제역 바이러스 혈청형 O 배양액(cal1~cal4) (Foot-and-mouth disease virus serotype O); test: sandwich ELISA, cal3, 1E58 coat 2 ug/ml, 1E58-HRP 0.6 ug/ml, 450 nm
[22] = biological target: 구제역 바이러스 혈청형 O 배양액(cal1~cal4) (Foot-and-mouth disease virus serotype O); test: sandwich ELISA, cal3, 1E58 coat 4 ug/ml, 1E58-HRP 0.2 ug/ml, 450 nm
[23] = biological target: 구제역 바이러스 혈청형 O 배양액(cal1~cal4) (Foot-and-mouth disease virus serotype O); test: sandwich ELISA, cal4, 1E58 coat 1 ug/ml, 1E58-HRP 0.4 ug/ml, 450 nm
[24] = biological target: 구제역 바이러스 혈청형 O 배양액(cal1~cal4) (Foot-and-mouth disease virus serotype O); test: sandwich ELISA, cal4, 1E58 coat 1 ug/ml, 1E58-HRP 0.6 ug/ml, 450 nm
[25] = biological target: 구제역 바이러스 혈청형 O 배양액(cal1~cal4) (Foot-and-mouth disease virus serotype O); test: sandwich ELISA, cal4, 1E58 coat 2 ug/ml, 1E58-HRP 0.8 ug/ml, 450 nm
[26] = biological target: 구제역 바이러스 혈청형 O 배양액(cal1~cal4) (Foot-and-mouth disease virus serotype O); test: sandwich ELISA, cal4, 1E58 coat 4 ug/ml, 1E58-HRP 0.8 ug/ml, 450 nm
[27] = biological target: 구제역 바이러스 혈청형 O 배양액(cal1~cal4) (Foot-and-mouth disease virus serotype O); test: sandwich ELISA, cal4, 1E58 coat 8 ug/ml, 1E58-HRP 0.8 ug/ml, 450 nm
[28] = biological target: FMDV 혈청형 A Iran05 (Foot-and-mouth disease virus serotype A); test: sandwich ELISA, 1E58 coat 4 ug/ml, 1E58-HRP 0.3 ug/ml, virus culture fluid

B1: 단클론항체 1E58 (antibody, V domains shown)
VH: EFQLQQSRPELAKPGASVKISCKTSGHTFTTYTMHWVKQSHVKSLEWIGCFNPNNGGATYNQKFKGKATLTMDKSSNTAYVEVRSLTSDDSAVYYCAYGNYVNFDYWGQGTTLTVSS
VL: DIVLTQSPASLAVSLGQRATISYRASKSVSTSGYSYMHWNQQKPGQPPRLLIYLVSNLESGVPARFSGSGSGTDFTLNIHPVEEEDAATYYCQHIRELTRSEGGPSWKN
- O.D [1]: 1.81 O.D
- O.D [2]: 2.98 O.D
- O.D [3]: 3.87 O.D
- O.D [4]: 3.15 O.D
- O.D [5]: 4 O.D
- O.D [6]: 4 O.D
- O.D [7]: 1.4 O.D
- O.D [8]: 1.55 O.D
- O.D [9]: 3.67 O.D
- O.D [10]: 2.09 O.D
- O.D [11]: 3.08 O.D
- O.D [12]: 3.47 O.D
- O.D [13]: 1.24 O.D
- O.D [14]: 1.85 O.D
- O.D [15]: 4 O.D
- O.D [16]: 0.54 O.D
- O.D [17]: 0.77 O.D
- O.D [18]: 0.83 O.D
- O.D [19]: 1.17 O.D
- O.D [20]: 1.37 O.D
- O.D [21]: 1.89 O.D
- O.D [22]: 1.14 O.D
- O.D [23]: 0.65 O.D
- O.D [24]: 0.74 O.D
- O.D [25]: 1.05 O.D
- O.D [26]: 1.46 O.D
- O.D [27]: 0.59 O.D
- O.D (450nm) [28]: 4 O.D
